From patent US20080138335A1 (Kyowa Kirin, published 2008)
Positions count from the first letter of the chain named. Numbers in names are those of the source.

B1: 341-G [1/1/2/2] (antibody)
heavy: QVQLQQSGPGLVKPSQTLSLTCAISGDSVSSNSATWNWIRQSPSRDLEWLGRTYYRSKWYRDYVGSVKSRIIINPDTSNNQFSLQLNSVTPEDTAIYYCTRAQWLGGDYPYYYSMDVWGQGTTVTVSS
VL: EIVLTQSPATLSLSPGERATLSCRASQSVSSYLAWYQQKPGQAPRLLIYDASNRATGIPARFSGSGSGTDFTLTISSLEPEDFAVYYCQQRSNTFGPGTKVDIK
notes: also called IgG[1/1/2/2]; N5KG1122; not shown: human IgG1 heavy chain constant region, CH1 and hinge domains (EU 118-237), from vector N5KG1-Val Lark; human IgG2 heavy chain constant region, CH2 and CH3 domains (EU 238-446), from vector N5KG2
B2: 341-G [2/2/1/1] (antibody)
heavy: B1 heavy
VL: B1 VL
notes: also called IgG[2/2/1/1]; N5KG2211; not shown: human IgG2 heavy chain constant region, CH1 and hinge domains (EU 118-237), from vector N5KG2; human IgG1 heavy chain constant region, CH2 and CH3 domains (EU 238-446), from vector N5KG1
B3: 341-G [2/2/2/1] (antibody)
heavy: B1 heavy
VL: B1 VL
notes: also called IgG[2/2/2/1]; N5KG2221; not shown: human IgG2 heavy chain constant region, CH1, hinge and CH2 domains (EU 118-340), from vector N5KG2; human IgG1 heavy chain constant region, CH3 domain (EU 341-446), from vector N5KG1
B4: 341-G [2/2/1/2] (antibody)
heavy: B1 heavy
VL: B1 VL
notes: also called IgG[2/2/1/2]; N5KG2212; not shown: human IgG2 heavy chain constant region, CH1 and hinge domains (EU 118-237), from vector N5KG2; human IgG1 heavy chain constant region, CH2 domain (EU 238-340), from vector N5KG1 by way of N5KG2211; human IgG2 heavy chain constant region, CH3 domain (EU 341-446), from vector N5KG2
B5: 4D11-G[1133] (antibody, V domains shown)
VH: QLQLQESGPGLLKPSETLSLTCTVSGGSISSPGYYGGWIRQPPGKGLEWIGSIYKSGSTYHNPSLKSRVTISVDTSKNQFSLKLSSVTAADTAVYYCTRPVVRYFGWFDPWGQGTLVTVSS
VL: AIQLTQSPSSLSASVGDRVTITCRASQGISSALAWYQQKPGKAPKLLIYDASNLESGVPSRFSGSGSGTDFTLTISSLQPEDFATYYCQQFNSYPTFGQGTKVEIK
notes: also called IgG[1/1/3/3]; N5KG1133; not shown: human IgG1 heavy chain constant region, CH1 and hinge domains (EU 118-237), from vector N5KG1-Val Lark; human IgG3 heavy chain constant region, CH2 and CH3 domains (EU 238-446), from vector N5KG3
B6: 4D11-G3[E356D] (antibody, V domains shown)
VH: B5 VH
VL: B5 VL
notes: One-amino acid variant of 4D11-G3; also called IgG3-[E356D]; N5KG3-E356D; not shown: human IgG3 heavy chain constant region, from vector N5KG3
B7: 4D11-G3[I422V] (antibody, V domains shown)
VH: B5 VH
VL: B5 VL
notes: One-amino acid variant of 4D11-G3; also called IgG3[I422V]; N5KG3-1422V; not shown: human IgG3 heavy chain constant region, from vector N5KG3
B8: 4D11-G[3331] (antibody, V domains shown)
VH: B5 VH
VL: B5 VL
notes: also called IgG[3/3/3/1]; N5KG3331; not shown: human IgG3 heavy chain constant region, CH1, hinge and CH2 domains (EU 118-340), from vector N5KG3; human IgG1 heavy chain constant region, CH3 domain (EU 341-446), from vector N5KG1
B9: 4D11-G[3311] (antibody, V domains shown)
VH: B5 VH
VL: B5 VL
notes: also called IgG[3/3/1/1]; N5KG3311; not shown: human IgG3 heavy chain constant region, CH1 and hinge domains (EU 118-237), from vector N5KG3; human IgG1 heavy chain constant region, CH2 and CH3 domains (EU 238-446), from vector N5KG1
B10: 4D11-G3[M397V] (antibody, V domains shown)
VH: B5 VH
VL: B5 VL
notes: One-amino acid variant of 4D11-G3, made on N5KG3-4D11; also called N5KG3-M397V; 4D11-G[M397V]; not shown: human IgG3 heavy chain constant region, from vector N5KG3-4D11
B11: 4D11-G3[M358L] (antibody, V domains shown)
VH: B5 VH
VL: B5 VL
notes: One-amino acid variant of 4D11-G3; also called IgG3[M358L]; N5KG3-M358L; not shown: human IgG3 heavy chain constant region, from vector N5KG3
B12: 4D11-G3[R435H] (antibody, V domains shown)
VH: B5 VH
VL: B5 VL
notes: One-amino acid variant of 4D11-G3; also called IgG3[R435H]; N5KG3-R435H; not shown: human IgG3 heavy chain constant region, from vector N5KG3
B13: 4D11-G[3313] (antibody, V domains shown)
VH: B5 VH
VL: B5 VL
notes: also called IgG[3/3/1/3]; N5KG3313; not shown: human IgG3 heavy chain constant region, CH1 and hinge domains (EU 118-237), from vector N5KG3; human IgG1 heavy chain constant region, CH2 domain (EU 238-340), from vector N5KG1 by way of N5KG3311; human IgG3 heavy chain constant region, CH3 domain (EU 341-446), from vector N5KG3
B14: 4D11-G3[N392K] (antibody, V domains shown)
VH: B5 VH
VL: B5 VL
notes: One-amino acid variant of 4D11-G3; also called IgG3[N392K]; N5KG3-N392K; not shown: human IgG3 heavy chain constant region, from vector N5KG3
B15: 341-G2Ser[Q274K] (antibody, human IgG2, kappa)
heavy: QVQLQQSGPGLVKPSQTLSLTCAISGDSVSSNSATWNWIRQSPSRDLEWLGRTYYRSKWYRDYVGSVKSRIIINPDTSNNQFSLQLNSVTPEDTAIYYCTRAQWLGGDYPYYYSMDVWGQGTTVTVSSASTKGPSVFPLAPCSRSTSESTAALGCLVKDYFPEPVTVSWNSGALTSGVHTFPAVLQSSGLYSLSSVVTVPSSNFGTQTYTCNVDHKPSNTKVDKTVERKCCVECPPCPAPPVAGPSVFLFPPKPKDTLMISRTPEVTCVVVDVSHEDPEVKFNWYVDGVEVHNAKTKPREEQFNSTFRVVSVLTVVHQDWLNGKEYKCKVSNKGLPASIEKTISKTKGQPREPQVYTLPPSREEMTKNQVSLTCLVKGFYPSDIAVEWESNGQPENNYKTTPPMLDSDGSFFLYSKLTVDKSRWQQGNVFSCSVMHEALHNHYTQKSLSLSPGK
light: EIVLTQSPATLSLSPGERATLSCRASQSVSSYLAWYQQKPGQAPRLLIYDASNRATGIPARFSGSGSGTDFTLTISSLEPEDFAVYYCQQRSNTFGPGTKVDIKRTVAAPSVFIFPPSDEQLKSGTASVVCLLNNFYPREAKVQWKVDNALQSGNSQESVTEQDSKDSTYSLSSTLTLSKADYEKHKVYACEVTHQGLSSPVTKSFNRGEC
notes: Made from the 341-G2Ser expression vector; also called N5KG2Ser-341-Q274K
B16: 341-G2Ser[T339A] (antibody, human IgG2, kappa)
heavy: B15 heavy with K281Q, T346A
light: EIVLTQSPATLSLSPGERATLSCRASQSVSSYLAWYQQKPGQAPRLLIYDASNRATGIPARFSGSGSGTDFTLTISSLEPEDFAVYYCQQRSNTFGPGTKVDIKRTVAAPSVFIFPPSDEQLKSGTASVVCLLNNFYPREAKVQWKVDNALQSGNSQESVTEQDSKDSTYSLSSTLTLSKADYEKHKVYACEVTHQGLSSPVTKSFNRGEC
notes: Made from the 341-G2Ser expression vector; also called N5KG2Ser-341-T339A
B17: 341-G2Ser[F300Y] (antibody, human IgG2, kappa)
heavy: B15 heavy with K281Q, F307Y
light: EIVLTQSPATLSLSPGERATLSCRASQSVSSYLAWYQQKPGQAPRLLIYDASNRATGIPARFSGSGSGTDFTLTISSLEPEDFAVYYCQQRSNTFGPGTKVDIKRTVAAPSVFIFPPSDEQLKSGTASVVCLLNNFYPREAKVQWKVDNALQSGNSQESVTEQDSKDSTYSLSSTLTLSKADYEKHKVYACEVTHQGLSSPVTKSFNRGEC
notes: Made from the 341-G2Ser expression vector; also called N5KG2Ser-341-F300Y
B18: 341-G2Ser[G327A] (antibody, human IgG2, kappa)
heavy: B15 heavy with K281Q, G334A
light: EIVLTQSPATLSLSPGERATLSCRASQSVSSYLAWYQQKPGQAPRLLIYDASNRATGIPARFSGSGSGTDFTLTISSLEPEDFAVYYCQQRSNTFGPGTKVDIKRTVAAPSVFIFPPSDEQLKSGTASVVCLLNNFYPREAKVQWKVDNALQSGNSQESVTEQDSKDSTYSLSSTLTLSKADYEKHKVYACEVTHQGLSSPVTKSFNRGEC
notes: Made from the 341-G2Ser expression vector; also called N5KG2Ser-341-G327A
B19: 341-G2Ser[V309L] (antibody, human IgG2, kappa)
heavy: B15 heavy with K281Q, V316L
light: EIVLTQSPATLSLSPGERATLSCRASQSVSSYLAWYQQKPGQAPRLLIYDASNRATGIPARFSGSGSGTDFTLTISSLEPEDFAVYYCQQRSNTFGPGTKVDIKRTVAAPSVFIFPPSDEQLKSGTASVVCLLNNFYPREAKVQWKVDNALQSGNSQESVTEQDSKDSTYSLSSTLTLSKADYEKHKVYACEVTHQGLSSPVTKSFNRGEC
notes: Made from the 341-G2Ser expression vector; also called N5KG2Ser-341-V309L
B20: 341-G2Ser[F296Y] (antibody, human IgG2, kappa)
heavy: B15 heavy with K281Q, F303Y
light: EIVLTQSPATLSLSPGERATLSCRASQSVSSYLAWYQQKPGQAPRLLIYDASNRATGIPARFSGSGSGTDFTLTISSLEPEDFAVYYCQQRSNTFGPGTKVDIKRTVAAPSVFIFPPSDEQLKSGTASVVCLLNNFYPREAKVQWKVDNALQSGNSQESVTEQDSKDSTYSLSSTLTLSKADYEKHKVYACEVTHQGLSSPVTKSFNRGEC
notes: Made from the 341-G2Ser expression vector; also called N5KG2Ser-341-F296Y

biological target: T1, CD40 expressed on Ramos [ATCC] cells (UniProt P25942 21-277, limits assumed); experiment: flow cytometry (FACS) on Ramos cells expressing CD40, R-PE anti-human antibody
T1 construct: whole, on cells; Target of all flow cytometry and CD95 assays; endogenous CD40 on the Ramos cell line
T1 sequence (P25942 21-277 limits assumed): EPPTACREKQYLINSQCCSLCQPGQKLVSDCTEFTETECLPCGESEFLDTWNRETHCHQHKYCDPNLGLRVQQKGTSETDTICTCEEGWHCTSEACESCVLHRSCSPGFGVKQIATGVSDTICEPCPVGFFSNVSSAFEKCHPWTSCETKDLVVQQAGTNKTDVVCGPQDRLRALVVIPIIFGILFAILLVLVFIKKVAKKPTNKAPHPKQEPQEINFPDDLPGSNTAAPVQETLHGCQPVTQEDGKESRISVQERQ

Binding result, binds:
B1
B2
B3
B4
B5
B6
B7
B8
B9
B10
B11
B12
B13
B14
B15
B16
B17
B18
B19
B20
